Results published in patent US20180016313A1 (MEDPACTO, published 2018).

What was measured:
[1] = target: T1, human LRP6 (hLRP6) protein (Cat. No. 1505-LR-025, R&D, USA) (human, UniProt O75581 20-1368, limits assumed); assay: ELISA, 100 ng hLRP6 coated, DKK2 protein diluted serially from 100 nM, KD calculated from absorbance at 490 nm
T1 construct: Coated on the ELISA plate
T1 sequence (looked up): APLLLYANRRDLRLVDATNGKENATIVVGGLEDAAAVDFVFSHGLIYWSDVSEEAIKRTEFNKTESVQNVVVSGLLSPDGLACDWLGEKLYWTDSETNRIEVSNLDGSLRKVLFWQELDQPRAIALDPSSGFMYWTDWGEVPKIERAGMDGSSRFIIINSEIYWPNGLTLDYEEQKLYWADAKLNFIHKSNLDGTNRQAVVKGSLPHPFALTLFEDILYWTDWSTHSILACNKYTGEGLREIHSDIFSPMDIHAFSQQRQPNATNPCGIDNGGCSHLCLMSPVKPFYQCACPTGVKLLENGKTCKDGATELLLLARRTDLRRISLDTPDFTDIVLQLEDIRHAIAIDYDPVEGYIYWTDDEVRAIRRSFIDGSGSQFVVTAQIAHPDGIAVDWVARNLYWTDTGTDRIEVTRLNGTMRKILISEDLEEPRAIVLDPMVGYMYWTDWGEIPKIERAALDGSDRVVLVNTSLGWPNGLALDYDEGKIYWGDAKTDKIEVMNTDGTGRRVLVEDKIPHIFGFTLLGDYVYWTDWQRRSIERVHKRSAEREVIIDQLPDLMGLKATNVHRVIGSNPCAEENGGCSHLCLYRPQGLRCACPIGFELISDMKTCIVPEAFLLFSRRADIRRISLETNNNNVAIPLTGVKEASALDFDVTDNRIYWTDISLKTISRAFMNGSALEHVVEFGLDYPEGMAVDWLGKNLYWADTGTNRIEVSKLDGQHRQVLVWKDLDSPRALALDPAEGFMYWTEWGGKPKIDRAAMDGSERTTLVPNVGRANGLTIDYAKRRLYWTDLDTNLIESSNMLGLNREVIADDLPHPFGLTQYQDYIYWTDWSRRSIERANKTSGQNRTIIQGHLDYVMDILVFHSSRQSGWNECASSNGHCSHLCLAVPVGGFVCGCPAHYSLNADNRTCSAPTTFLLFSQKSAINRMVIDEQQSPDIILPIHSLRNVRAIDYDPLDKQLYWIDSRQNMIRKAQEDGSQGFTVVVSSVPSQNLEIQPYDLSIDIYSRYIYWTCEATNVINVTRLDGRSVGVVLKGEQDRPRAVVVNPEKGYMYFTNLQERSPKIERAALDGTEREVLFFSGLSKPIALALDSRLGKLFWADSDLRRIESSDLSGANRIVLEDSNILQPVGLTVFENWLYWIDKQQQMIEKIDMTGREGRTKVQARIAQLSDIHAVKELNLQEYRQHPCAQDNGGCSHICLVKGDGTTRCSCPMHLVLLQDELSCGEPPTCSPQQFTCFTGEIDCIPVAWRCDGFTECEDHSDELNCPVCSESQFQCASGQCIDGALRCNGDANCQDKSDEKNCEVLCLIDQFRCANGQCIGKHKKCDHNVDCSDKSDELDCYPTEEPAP
Description: (§1) Each purified DKK2 protein and 100 μl of 1% (w/v) skim milk/1×PBS were mixed to prepare 100 nM of DKK2 protein, and 100 nM of DKK2 protein was subjected to ¼ serial dilution. The diluted protein was applied to the prepared ELISA plate, and incubated at room temperature for about 2 hours. Thereafter, the plate was washed with 200 μl of PBST five times.
(§2) 2 μl of anti-Human Fc-HRP (Cat. No. 31413, Thermo, USA) antibody was mixed with 4 ml of PBS containing 1% (w/v) skim milk, and 200 μl of this mixture was added to each well of ELISA plate and incubated at room temperature for 1 hour. Thereafter, the secondary antibody of the ELISA plate was removed, and the plate was washed with 200 of PBS five times. 10 μl of H₂O₂ solution (Cat. No. H1009-100ML, Sigma, USA), 10 ml of PC buffer (5.1 g of citric acid monohydrate, 7.3 g of sodium phosphate/L (pH 5.0)), and one tablet of OPD (Cat. No. P8787-100TAB, Sigma, USA) were mixed to prepare a mixture, and a total volume of 100 μl of the mixture was added to each well. Incubation was performed at room temperature in the dark for 10 minutes, followed by color development. Thereafter, 50 μl of a stop buffer was added to each well to terminate the color development. Absorbance at 490 nm was measured using an ELISA reader, and a dissociation constant KD value (M) was calculated from the measured absorbance. […]

[2] = target: T2, mouse LRP6 (mLRP6) protein (Cat. No. 2960-LR-025, R&D, USA) (mouse, UniProt O88572 20-1370, limits assumed); assay: ELISA, 100 ng mLRP6 coated, DKK2 protein diluted serially from 100 nM, KD calculated from absorbance at 490 nm
T2 construct: Coated on the ELISA plate
T2 sequence (looked up): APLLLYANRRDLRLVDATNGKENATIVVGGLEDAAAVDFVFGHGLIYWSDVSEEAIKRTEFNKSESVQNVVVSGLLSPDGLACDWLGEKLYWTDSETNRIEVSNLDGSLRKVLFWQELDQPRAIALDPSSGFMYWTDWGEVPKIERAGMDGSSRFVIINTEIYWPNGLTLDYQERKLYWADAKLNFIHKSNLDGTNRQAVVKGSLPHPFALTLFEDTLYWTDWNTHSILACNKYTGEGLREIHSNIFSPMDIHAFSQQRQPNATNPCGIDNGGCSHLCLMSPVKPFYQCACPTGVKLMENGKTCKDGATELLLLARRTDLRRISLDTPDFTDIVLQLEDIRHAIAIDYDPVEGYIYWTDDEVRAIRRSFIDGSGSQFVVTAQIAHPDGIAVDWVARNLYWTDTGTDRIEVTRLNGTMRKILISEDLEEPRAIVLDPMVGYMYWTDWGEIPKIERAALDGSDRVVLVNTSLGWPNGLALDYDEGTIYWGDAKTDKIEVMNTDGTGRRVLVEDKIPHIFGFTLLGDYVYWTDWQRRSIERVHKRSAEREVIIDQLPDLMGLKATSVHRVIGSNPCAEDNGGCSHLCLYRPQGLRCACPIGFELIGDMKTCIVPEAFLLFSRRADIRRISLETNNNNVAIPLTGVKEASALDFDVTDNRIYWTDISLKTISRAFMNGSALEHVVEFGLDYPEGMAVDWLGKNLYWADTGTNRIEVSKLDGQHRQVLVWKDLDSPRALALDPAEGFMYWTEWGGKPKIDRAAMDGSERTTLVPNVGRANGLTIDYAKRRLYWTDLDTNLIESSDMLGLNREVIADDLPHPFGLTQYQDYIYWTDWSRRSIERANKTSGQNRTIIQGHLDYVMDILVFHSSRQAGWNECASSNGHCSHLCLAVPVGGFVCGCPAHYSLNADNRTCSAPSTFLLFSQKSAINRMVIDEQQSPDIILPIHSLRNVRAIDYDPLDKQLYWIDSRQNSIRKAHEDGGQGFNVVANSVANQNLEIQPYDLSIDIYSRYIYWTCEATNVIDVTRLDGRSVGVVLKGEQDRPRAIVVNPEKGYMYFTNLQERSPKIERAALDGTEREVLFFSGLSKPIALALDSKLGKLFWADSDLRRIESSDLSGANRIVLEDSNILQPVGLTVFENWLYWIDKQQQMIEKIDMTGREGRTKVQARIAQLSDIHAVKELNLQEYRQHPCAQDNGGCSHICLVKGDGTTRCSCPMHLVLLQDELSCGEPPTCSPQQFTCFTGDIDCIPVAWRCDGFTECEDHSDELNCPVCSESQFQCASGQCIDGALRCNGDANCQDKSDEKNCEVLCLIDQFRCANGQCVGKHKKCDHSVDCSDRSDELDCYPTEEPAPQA
Description: as §1, §2

Kd [1]: 90 nM | Kd [2]: 270 nM
B1: wild-type DKK2 (Cat. No. 6628-DK-010, R&D, USA) (ligand)
chain: KLNSIKSSLGGETPGQAANRSAGMYQGLAFGGSKKGKNLGQAYPCSSDKECEVGRYCHSPHQGSSACMVCRRKKKRCHRDGMCCPSTRCNNGICIPVTESILTPHIPALDGTRHRDRNHGHYSNHDLGWQNLGRPHTKMSHIKGHEGDPCLRSSDCIEGFCCARHFWTKICKPVLHQGEVCTKQRKKGSHGLEIFQRCDCAKGLSCKVWKDATYSSKARLHVCQKI
notes: Bought protein; also called wild-type DKK2 protein
